Source: article PMC7136269, “CXXC5 as an unmethylated CpG dinucleotide binding protein contributes to estrogen-mediated cellular proliferation”

T1: FL-CXXC5 (human, UniProt Q7LFL8 1-322)
T1 sequence: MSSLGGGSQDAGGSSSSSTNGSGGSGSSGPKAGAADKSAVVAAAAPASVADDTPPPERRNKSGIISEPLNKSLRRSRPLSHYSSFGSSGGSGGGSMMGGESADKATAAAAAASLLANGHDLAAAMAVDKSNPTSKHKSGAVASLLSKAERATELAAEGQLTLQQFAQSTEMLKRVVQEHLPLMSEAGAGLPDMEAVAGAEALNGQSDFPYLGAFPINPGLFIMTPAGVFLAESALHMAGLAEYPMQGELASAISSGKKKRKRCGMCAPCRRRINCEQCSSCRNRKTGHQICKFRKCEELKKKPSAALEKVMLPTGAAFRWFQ

T2: CXXC-D (CXXC domain of CXXC5) (human, UniProt Q7LFL8 250-309)
T2 sequence: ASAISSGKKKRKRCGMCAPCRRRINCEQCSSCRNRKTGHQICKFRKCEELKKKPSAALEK

B1: mCG DNA, distinct flanks (dsDNA)
DNA 1: GAGAGACCGGTCTCTC
DNA 2: GAGAGACCGGTCTCTC
modifications: 5-methyl-C at position 8 (central mCG; self-complementary, so both strands)
B2: CG DNA, distinct flanks (dsDNA)
DNA 1: GAGAGACCGGTCTCTC
DNA 2: GAGAGACCGGTCTCTC
B3: AT DNA (dsDNA)
DNA 1: GTGATACATGATCAGT
DNA 2: ACTGATCATGTATCAC
B4: CG DNA (dsDNA)
DNA 1: GTGATACCGGATCAGT
DNA 2: ACTGATCCGGTATCAC
B5: mCG DNA (dsDNA)
DNA 1: GTGATACCGGATCAGT
DNA 2: ACTGATCCGGTATCAC
modifications: 5-methyl-C at position 8 (GTGATACmCGGATCAGT); lower strand presumably also methylated at its central CpG
B6: AT DNA, distinct flanks (dsDNA)
DNA 1: GAGAGACATGTCTCTC
DNA 2: GAGAGACATGTCTCTC

Assays:
FL-CXXC5 [1] = target: T1, FL-CXXC5; test: ITC; ITC: 10 uM protein, 300 uM DNA, 25 C, VP-ITC, one-site fit; DNA annealed in 20 mM Tris pH 7.5, 150 mM NaCl; protein eluted in 20 mM Tris pH 7.5, 150 mM NaCl, 1; conditions: protein: recombinant, tags: 6xHis removed by TEV (pET28a-MHL), blunt
FL-CXXC5 [2] = target: T1, FL-CXXC5; test: ITC; similar affinity to N1; ITC: 10 uM protein, 300 uM DNA, 25 C, VP-ITC, one-site fit; DNA annealed in 20 mM Tris pH 7.5, 150 mM NaCl; protein eluted in 20 mM Tris pH 7.5, 150 mM NaCl, 1; conditions: protein: recombinant; tags: 6xHis removed by TEV (pET28a-MHL); blunt; self-complementary
[3] = target: T2, CXXC-D (CXXC domain of CXXC5); test: ITC; ITC: 10 uM protein, 300 uM DNA, 25 C, VP-ITC, one-site fit; DNA annealed in 20 mM Tris pH 7.5, 150 mM NaCl; protein eluted in 20 mM Tris pH 7.5, 150 mM NaCl, 1; conditions: protein: recombinant; tags: 6xHis removed by TEV (pET28a-MHL); blunt

Binder | binding result (FL-CXXC5 [1]; self-complementary) | binding result (FL-CXXC5 [1]) | also measured
B1 | no binding | – | –
B2 | – | – | binding result (FL-CXXC5 [2]): binds
B3 | – | no binding | –
B4 | – | binds | binding result [3]: binds
B5 | – | no binding | –
B6 | no binding | – | –
